Laboratory results as given in patent US20240209330A1 (10X GENOMICS, published 2024).

Biological target: T1, recombinant Phi29 polymerase-SpyTag fusion protein (Bacillus phage phi29 (Bacteriophage …, UniProt P03680 2-575))
T1 construct: Expressed in E. coli with an amino terminal polyhistidine/SUMO tag (N-His/SUMO); The tag was cleaved with ULP1; also called N-His/SUMO Phi29 polymerase-SpyTag fusion protein; Phi29 with K-linker-SpyTag003
T1 sequence: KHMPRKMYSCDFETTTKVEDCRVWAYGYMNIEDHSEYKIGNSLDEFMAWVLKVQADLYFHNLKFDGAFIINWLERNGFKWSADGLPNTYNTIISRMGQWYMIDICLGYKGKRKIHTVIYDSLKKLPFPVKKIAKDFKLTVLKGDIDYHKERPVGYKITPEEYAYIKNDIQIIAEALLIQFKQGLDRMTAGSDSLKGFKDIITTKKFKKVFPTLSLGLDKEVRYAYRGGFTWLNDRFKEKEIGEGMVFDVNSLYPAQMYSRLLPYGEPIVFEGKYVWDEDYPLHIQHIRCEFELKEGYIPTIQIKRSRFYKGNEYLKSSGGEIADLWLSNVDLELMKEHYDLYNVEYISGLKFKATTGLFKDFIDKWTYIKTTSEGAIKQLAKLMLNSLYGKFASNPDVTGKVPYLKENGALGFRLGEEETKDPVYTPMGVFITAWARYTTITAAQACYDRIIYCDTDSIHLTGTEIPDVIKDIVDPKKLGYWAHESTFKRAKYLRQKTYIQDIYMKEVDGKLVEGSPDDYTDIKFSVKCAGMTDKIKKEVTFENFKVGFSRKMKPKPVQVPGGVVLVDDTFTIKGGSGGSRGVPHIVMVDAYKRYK
Assay: co-expression in E. coli, nickel purification, SDS-PAGE (covalent SpyCatcher:SpyTag coupling)
Excerpt: N-His/SUMO recombinant Phi29 polymerase-SpyCatcher fusion protein and recombinant Phi29 polymerase-SpyTag fusion protein were expressed as described in Example 3. The soluble fraction was collected and run on a nickel column. The SDS-PAGE for the various fractions are shown in FIG. 9A (SpyCatcher) and FIG. 9B (SpyTag). The SUMO tag was cleaved using a recombinant Ubl-specific protease 1 (ULP1). Fractions were collected for pre- and post-cleavage of the N-His/SUMO tag, as shown in FIG. 10A (SpyCatcher) and FIG. 10B (SpyTag). Each elution fraction was collected as 1 mL aliquots using an 80-100% gradient of 1 M NaCl.
When the Phi29 polymerase-SpyCatcher fusion protein, the Phi29 polymerase-SpyTag fusion protein were co-expressed in E. coli, a dimer of fusion proteins (e.g., a dimer of Phi29 polymerase-SpyCatcher:Phi29 polymerase-SpyTag; comprising two Phi29 polymerase domains), with an approximate molecular weight of 147.974 kDa, was generated based on the protein coupling between SpyCatcher:SpyTag. (FIG. 10C, lane 3).

B1: recombinant Phi29 polymerase-SpyCatcher fusion protein (enzyme)
chain: KHMPRKMYSCDFETTTKVEDCRVWAYGYMNIEDHSEYKIGNSLDEFMAWVLKVQADLYFHNLKFDGAFIINWLERNGFKWSADGLPNTYNTIISRMGQWYMIDICLGYKGKRKIHTVIYDSLKKLPFPVKKIAKDFKLTVLKGDIDYHKERPVGYKITPEEYAYIKNDIQIIAEALLIQFKQGLDRMTAGSDSLKGFKDIITTKKFKKVFPTLSLGLDKEVRYAYRGGFTWLNDRFKEKEIGEGMVFDVNSLYPAQMYSRLLPYGEPIVFEGKYVWDEDYPLHIQHIRCEFELKEGYIPTIQIKRSRFYKGNEYLKSSGGEIADLWLSNVDLELMKEHYDLYNVEYISGLKFKATTGLFKDFIDKWTYIKTTSEGAIKQLAKLMLNSLYGKFASNPDVTGKVPYLKENGALGFRLGEEETKDPVYTPMGVFITAWARYTTITAAQACYDRIIYCDTDSIHLTGTEIPDVIKDIVDPKKLGYWAHESTFKRAKYLRQKTYIQDIYMKEVDGKLVEGSPDDYTDIKFSVKCAGMTDKIKKEVTFENFKVGFSRKMKPKPVQVPGGVVLVDDTFTIKGGSGGSVTTLSGLSGEQGPSGDMTTEEDSATHIKFSKRDEDGRELAGATMELRDSSGKTISTWISDGHVKDFYLYPGKYTFVETAAPDGYEVATPIEFTVNEDGQVTVDGEATEGDAHT
notes: Expressed in E. coli with an amino terminal polyhistidine/SUMO tag (N-His/SUMO); The tag was cleaved with ULP1; also called N-His/SUMO Phi29 polymerase-SpyCatcher fusion protein; Phi29 with K-linker-SpyCatcher003
B1: binds.
